Assay results published in patent publication US7074904.

How the values were obtained:
[1] = molecular target: full-length murine I-A^d/OVA 323-339 MHC class II fusion complex (pJRS165.1) expressed on NSO cells (mouse; chicken) (UniProt P04228); experiment: flow cytometry, FITC-conjugated isotype control antibody 1:100 on clone NSO/IA^d/OVA.A4
[2] = molecular target: full-length murine I-A^d/OVA 323-339 MHC class II fusion complex (pJRS165.1) expressed on NSO cells (mouse; chicken) (UniProt P04228); experiment: flow cytometry, FITC-conjugated isotype control antibody 1:100 on clone NSO/IA^d/OVA.B2
[3] = molecular target: full-length murine I-A^d/OVA 323-339 MHC class II fusion complex (pJRS165.1) expressed on NSO cells (mouse; chicken) (UniProt P04228); experiment: flow cytometry, FITC-conjugated isotype control antibody 1:100 on clone NSO/IA^d/OVA.B4
[4] = molecular target: full-length murine I-A^d/OVA 323-339 MHC class II fusion complex (pJRS165.1) expressed on NSO cells (mouse; chicken) (UniProt P04228); experiment: flow cytometry, FITC-conjugated isotype control antibody 1:100 on clone NSO/IA^d/OVA.B5
[5] = molecular target: murine class II MHC molecule I-A^d on A20.1-11 cells (mouse) (UniProt P04228); experiment: flow cytometry, FITC-conjugated isotype control antibody 1:100 on A20.1-11 cells (positive control)
[6] = molecular target: I-A^d on NSO parental cells (untransfected negative control, H-2^d background) (mouse) (UniProt P04228); experiment: flow cytometry, FITC-conjugated isotype control antibody 1:100 on untransfected NSO cells (negative control)

Substance: FITC-conjugated anti-IA^k antibody (Pharmingen), isotype matched irrelevant antibody
- peak channel fluorescence [1]: 34 channel
- peak channel fluorescence [2]: 14 channel
- peak channel fluorescence [3]: 11 channel
- peak channel fluorescence [4]: 10 channel
- peak channel fluorescence [5]: 5 channel
- peak channel fluorescence [6]: 5 channel
